Reference: US20110274702A1 (INSTITUTE FOR RESEARCH IN BIOMEDICINE, published 2011)

B1: FI6 variant 3 (antibody, V domains shown)
VH: QVQLVESGGGVVQPGRSLRLSCAASGFTFSTYAMHWVRQAPGKGLEWVAVISYDANYKYYADSVKGRFTISRDNSKNTLYLQMNSLRAEDTAVYYCAKDSQLRSLLYFEWLSQGYFDYWGQGTLVTVSS
VL: not shown
B2: FI6 variant 2 (antibody, V domains shown)
VH: QVQLVQSGGGVVQPGRSLRLSCVASGFTFSTYAMHWVRQAPGRGLEWVAVISYDGNYKYYADSVKGRFSISRDNSNNTLHLEMNTLRTEDTALYYCAKDSQLRSLLYFEWLSQGYFDPWGQGTLVTVTS
VL: DIQMTQSPDSLAVSLGARATINCKSSQSVTFNYKNYLAWYQQKPGQPPKVLIYWASARESGVPDRFSGSGSGTDFTLTISSLQAEDVAVYYCQQHYRTPPTFGQGTKVEIK
B3: FI28 variant 1 (antibody, V domains shown)
VH: EVQLVESGGGAVQPGESLKLSCAASGFTFSNYGMHWVRQAPGKGLEWVAVISYDGSNKYYADSVKGRFTISRDNSKDTLYLQMNSLRAEDTALFYCAKERPLRLLRYFDWLSGGANDYWGQGTLVTVSS
VL: DIVMTQSPDSLAVSLGERATINCKSSQSVLYSSNNKNYLAWYQQKPGQPPKLLIDWASTRESGVPDRFSGSGSGTDFTLTISNLQVEDVAVYYCQQYYRSPSFGQGTKLEIK

Columns and labels:
Assay in all cases: cell-based or functional assay
HA A/VN/1194/04 (H5) = HA A/VN/1194/04 (H5) (influenza A virus H5 A/VN/1194/04)
[1] = molecular target: H7N1 A/ck/FPV/Ro/34 HA on pseudotyped virus (influenza A virus H7N1 …, UniProt P03459 19-563)
[2] = molecular target: H5N1 A/VN/1203/04 HA on pseudotyped virus (influenza A virus H5N1 A/VN/1203/04)

Binder | Neutralization H5 A/VN/1194/04 pseudovirus, IC50 (HA A/VN/1194/04 (H5)) [µg/mL] | Neutralization H7 A/ck/FPV Rostock/34 pseudovirus, IC50 [1] [µg/mL] | Neutralization of HA-pseudotypes (IC90, µg/ml) [2] [µg/mL]
B1 | 0.0035 | 0.0274 | –
B2 | 0.0054 | 0.02 | –
B3 | – | – | 0.02
